Source: the DeepSol protein solubility set

Assay: soluble on expression in E. coli; label from the status in PepcDB or PDB records

Sequence | soluble on expression in E. coli
MFSAGHKIKGTVVLMPKNELEVNPDGSAVDNLNAFLGRSVSLQLISATKADAHGKGKVGKDTFLEGINTSLPTLGAGESAFNIHFEWDGSMGIPGAFYIKNYMQVEFFLKSLTLEAISNQGTIRFVCNSWVYNTKLYKSVRIFFANHTYVPSETPAPLVSYREEELKSLRGNGTGERKEYDRIYDYDVYNDLGNPDKSEKLARPVLGGSSTFPYPRRGRTGRGPTVTDPNTEKQGEVFYVPRDENLGHLKSKDALEIGTKSLSQIVQPAFESAFDLKSTPIEFHSFQDVHDLYEGGIKLPRDVISTIIPLPVIKELYRTDGQHILKFPQPHVVQVSQSAWMTDEEFAREMIAGVNPCVIRGLEEFPPKSNLDPAIYGDQSSKITADSLDLDGYTMDEALGSRRLFMLDYHDIFMPYVRQINQLNSAKTYATRTILFLREDGTLKPVAIELSLPHSAGDLSAAVSQVVLPAKEGVESTIWLLAKAYVIVNDSCYHQLMSHWLNTHAAMEPFVIATHRHLSVLHPIYKLLTPHYRNNMNINALARQSLINANGIIETTFLPSKYSVEMSSAVYKNWVFTDQALPADLIKRGVAIKDPSTPHGVRLLIEDYPYAADGLEIWAAIKTWVQEYVPLYYARDDDVKNDSELQHWWKEAVEKGHGDLKDKPWWPKLQTLEDLVEVCLIIIWIASALHAAVNFGEYPYGGLIMNRPTASRRLLPEKGTPEYEEMINNHEKAYLRTITSKLPTLISLSVIEILSTHASDEVYLGQRDNPHWTSDSKALQAFQKFGNKLKEIEEKLVRRNNDPSLQGNRLGPVQLPYTLLYPSSEEGLTFRGIPNSISI | soluble
MDSKAKQMILSALCKHFSLDPEPFVGGAGESDIKTLYSNVLKASGKEVSAQNNDVLKWLDFAEGFSSDSKDWFSALEKLNLELATKSVLLGNGLTPSAADVAVFSALHSSVLGLSDSDKEKVPHVIRWVNYIQNKEELSTLFAPIPVKLPEFSFEVPKPAIKVETNSNSKKAAEGVKPVDKPDVQPQLGTKKTEPEEPKKNAAKEKDAKKEKKKPAEPEPAKKEAELSVSLLNIQVGLIRKAWKHPSADSLLVEEIDVGEDKVRQVVSGLAKFCSPEDLTNRLVALITNVKPGKLRDVMSQGLVLCASSEDHSVVEPLLPPAGAKPGERVSFSGIEGKPEDVLNPKKKQLEKITPGLYTDENGVATYKGIQFMTSAGPCTSSIPKATIK | soluble
MKLPVPSPMRLAVTHEGRSIIYIPSPEYAVASGRLEPAWLEVFYNPAMEFNRDVSVVAASALRRTGLLTRSGVAFDAHAGVGVRGVRYAVEAGYVKVIMNDINPKASMLAALNARANGLEPGSYMIFNKESNSLMFHLSRERPTPVSLIDIDPYGSPAPFVDAALALSGKGTVVAMTATDLAVLEGGKARAAVRRYMLRSVSKTPVSKETGLRVLLGYVARVAAAHDKAVKPLLAYYADHYYRVYVAVERGARRSDSMLEENLGRLVYCPETGVALALSYAEDPASACGGSYVVAADPAWIGSLGDQAFLEAMLNIAVEAVWLGTRPRVEKLLNTLHGEAPLSPRSIYVSLTSVASKARVNTPKKSKVVELLRSMGYRAVATHFSGEGVRTDAPWGEVLEAVVKLGSSG | soluble
ASIPEGTDKNAPLTSIPGYIPNMLSPPKGDAFAARNQFALAIDFEHQPPFFDVTETHKAATWLLHPQAPKVEMPADVKEKIAITRKALAIKMPSQPVKQPKSNGNKKTKTKSAR | soluble
MSLTNKWIGALGLLLSGQLMASELVIESWRADDKALWEQKIIPAFEAANPGIKVKFNPVPNVNYTPTLWENLKAGKAGDLITCRPFDDSLALFKAGHLAEITEMAGMENFPSFAQAPWQTDSGAQTFCVPMASVIHGFFYNKKIFNELGLSVPQTREQFFTVLDKVKADGRYIPLSMSGSESWVASELGYQNIGPNYWKGEDGRLALINGQEHLDDSQYVKVFEELARWRAYLGEDGELRDYGTSNELFTSGKAALYVAGSWEIAPFTDKVDFGVMRPPVAKQGDGCFFTDHTDIGMGMNPASKNPQAAMAFLQWLTTPEFAELYTNSLPGFFSLSNHFFDVTNPAAREMMEWRDQCDSTIRVATQILSRGQPKLGDELAEVSQAVLVGKMTPTAAAERLEQGLKRWYAPHQTRKAKEQECQCVEPISPTTRLNTLPVVDIAPVVASDPVPPTEATILSEEGGSHHHHHH | soluble
MGSDKIHHHHHHMLKLYSFGPAANSMKPLLTVFEKGLDVEKHRLDPAKFEHHTDWFKAINPRGQVPALVDGDKVVTESTVICEYLEDEYPTEVALRPADSFGKAQMRIWTKWVDEYFCWCVSTIGWHRYVGNMVKSLSDAEFEEKVKAIPVIEQQVKWRRAREGFPQDMLDEEMRKIAYSVRKLDDHLADHEWLVPGQYTLADICNFAIANGMQFGFAELVNKQDTPHLVRWIEQINERPAVKQMFAQVELEKLGPRE | not soluble
MGSDKIHHHHHHMMTISNGNLRVDLRLIADMVEPGSRVLDVGCGEGALLDWLGRTKNVDGRGIELSMAGVSAAVSHGLSVIQGDADTDLKDYPSGAFDYVILSQTLQATYAPRTVLSNMLRIGRRAIVSFPNFGHWRVRLHLLTHGRMPVTDTLAYEWYDTPNIHFCTIRDFLDLCRDLGIRVERSIPLDRSGRTMAIPSCEGIANLFADQGLFVLSREG | not soluble
YGQYLSIRKTETLLRNELSKLTPDTVEELSSKLPENSRSLVITYMRQVLDARDTPAQVQRLLANFEIAADKDLAISKTLTK | not soluble
MSHIQRETSCSRPRLNSNLDADLYGYRWARDNVGQSGATIYRLYGKPNAPELFLKHGKGSVANDVTDEMVRLNWLTAFMPLPTIKHFIRTPDDAWLLTTAIPGKTAFQVLEEYPDSGENIVDALAVFLRRLHSIPVCNCPFNSDRVFRLAQAQSRMNNGLVDASDFDDERNGWPVEQVWKEMHKLLPFSPDSVVTHGDFSLDNLIFDEGKLIGCIDVGRVGIADRYQDLAILWNCLGEFSPSLQKRLFQKYGIDNPDMNKLQFHLMLDEFF | soluble
MMYFISDTHFYHENIINLNPEVRFKGFEIVILTNLLKVLKPEDTLYHLGDFTWHFNDKNEYLRIWKALPGRKILVMGNHDKDKESLKEYFDEIYDFYKIIEHKGKRILLSHYPAKDPITERYPDRQEMVREIYFKENCDLLIHGHVHWNREGIKCACKDYRIECINANVEWNDYKPISEREIDKLISYEKAKN | soluble
MSLNIQAIDTRHGTANQHSFSNGNCLPYTGVPFGMNFYAPQTTDQKGSWWFHPEDRTFQGYRVTHQPSPWMGDFSHLLMTPVSGSLSELSLFHAQSSYRPEESLFSPVEINLTQLRYQITSQLIPSMYGGILTIDYQQKDNHLLLTLPGRYQVKQLDDHQVAVKVINYSGCEDPDFSFYFVLHFEQPLTKWFAPSSGEDGKILLSFGNIAQQVVHFSSSFISEKQAQLNLAREISLRSTEMLQQGIADWHNYFDRLKVTHENPEHTKTFYHTLYRTFLFPQTFYELDENQQPIHYDTFSQTVRPGVLYTNNGFWDTYKTVYPLFSLIAQEKYEEMLEGFLNSYNETGFLPKWLSPDERGLMPGTLIDAVIADAAVKKIRPDLMPQFLEAMKKGATQQSERENYGRQGTLDYLKYGYVPSTYHESVNHTLDYAYSDFCISQVAKTLNDSETATFYRQQALNYQQLFNPETGFMQAKDTEGNFRPDFLDIRWGKDYAEGSAWQSSFAVYQDFAGLIKLYGSELAFEKKLIQLCNQAPNFNVEGYGFEIHEMSEMAAIDFGQLAISNQPSFHYPFLFSYIGKPEMAQPLLKQLMQTFDASPTGYPGDEDNGSMSAWYIFNSLGFYPVTPGTGEYVIGMPLVQTAEVKLSNGKQLTIQTSPNKVQQQFIHEIQLNQEKHTAPYFTHQELLNGGTLDYQLGIVPNPQNTAERPFSLSTEKEGGSHHHHHH | soluble
MAEITFKGGPVTLVGQEVKVGDQAPDFTVLTNSLEEKSLADMKGKVTIISVIPSIDTGVCDAQTRRFNEEAAKLGDVNVYTISADLPFAQARWCGANGIDKVETLSDHRDMSFGEAFGVYIKELRLLARSVFVLDENGKVVYAEYVSEATNHPNYEKPIEAAKALVK | soluble
MQNETRTLQLDPHLHIEAYRFKGIMQKFPNHFHDYYVIGFIEKGQRYLACQDQEYIINPGDLLLFNPRDTHSCEQIDGRTLDYRCINVMPDIMEKAVKEITGSGHLPYFSQHVLFRHELTASLQELHILISEEKQALRKEELFLHLLEELIRHYSDVTFLSSVPEPSDEVKMVCE | not soluble
MSLKQIIDNVEVYILTGPKEKRPHWVSHFIVPTANELLVKIKTKQGLEGFGIATNYSDINPVIEVFKTDFLDNFIGMDATCPEVIYEKIFNLTSQKLSFEKKWGKEPLIRISAAIDIACWDLIGKASGFPLYKLFGGYRDKVPCYVTCAYYRDGKDNKELKDEIEMLVGQGHQGFKGKVGGLSLREDLERMNIIRDVIGDEKSLMIDVNRAWDLKTASEAVNLLKPINPFWLEEPVRWADDRRELKLLSQKTEIPISGGESELTIYGCRSMLEEQAIQILQFDCTMFGGFTAGKKLSALCEVNHVDIAPHHDCFIHAHIVAGSPSGLIVESFTDPERDPLQAELFTNPPKIENGWLYLNEEPGLGLNLSNDALAKFGNKILEGHHHHHH | soluble
MEQFLDNIKDLEVTTVVRAQEALDKKETATFFIGRKTCPYCRKFAGTLSGVVAETKAHIYFINSEEPSQLNDLQAFRSRYGIPTVPGFVHITDGQINVRCDSSMSAQEIKDFAGL | soluble
YDPYQHIEKATNRRNMVLNAMVETGDITKAEGDKYKATKIVLNDQSKDPLANKYPWYVDAVINEAVNEADITQDEIMQKGY | not soluble
GEIEFIESSKDAGFPVINTPSKTKLEPSVFHQVFEGNKEPAVLRSGDPRLKANFEEAIFSKYIGNVNTHVDEYMLEAVDHYAGQLATLDISTEPMKLEDAVYGTEGLEALDLTTSAGYPYVALGIKKRDILSKKTKDLTKLKECMDKYGLNLPMVTYVKDELRSIEKVAKGKSRLIEASSLNDSVAMRQTFGNLYKTFHLNPGVVTGSAVGCDPDLFWSKIPVMLDGHLIAFDYSGYDASLSPVWFACLKMLLEKLGYTHKETNYIDYLCNSHHLYRDKHYFVRGGMPSGCSGTSIFNSMINNIIIRTLMLKVYKGIDLDQFRMIAYGDDVIASYPWPIDASLLAEAGKGYGLIMTPADKGECFNEVTWTNATFLKRYFRADEQYPFLVHPVMPMKDIHESIRWTKDPKNTQDHVRSLCLLAWHNGEHEYEEFIRKIRSVPVGRCLTLPAFSTLRRKWLDSFHHHHHH | soluble
MEVLVIAPRICVNVIRTLPIGLPVGVEKRLRAFDPDVIHLASPYAFAARAAFIAQKMAVPCVAVYQTDVAAYQQHYHLTWLKNLEHHHHHH | not soluble
MGVITDDVTIAQQALTHYDVSDNASLRLLNLSENATYLVEDGEHQSILRVHRQDYHQPHEIESELDWLAALRTDSDVTVPTVVPARDGRRVVTVDPADSDAVPRHVVHFEMVGGAEPDEESLTLDDFQTLGRITASLHEHSQRWTRPAGFGRFSWDWEHCLGDTPRWGRWQDAEGVGASETALLTRAQDLLHRKLEEYGSGPDRYGLIHADLRLANLLVDSSTPQRTITVIDFDDCGFGWYFYDFGTAVSFIEHDPRLGEWQESWVAGYRSRRELPAADEAMLPSFVFLRRLLLLAWMGSHTHSRESATKAISYAAGSCALAERYLSSDGLRLT | not soluble
MGSSHHHHHHSSGLVPRGSHMETADLKSLAKRIYEAYLKNFNMNKVKARVILSGKASNNPPFVIHDMETLCMAEKTLVAKLVANGIQNKEAEVRIFHCCQCTSVETVTELTEFAKAIPGFANLDLNDQVTLLKYGVYEAIFAMLSSVMNKDGMLVAYGNGFITREFLKSLRKPFCDIMEPKFDFAMKFNALELDDSDISLFVAAIICCGDRPGLLNVGHIEKMQEGIVHVLRLHLQSNHPDDIFLFPKLLQKMADLRQLVTEHAQLVQIIKKTESDAALHPLLQEIYRDMY | soluble
